In patent publication US20230057622A1:
Like-named read-outs stand apart in the source and are kept apart here.

Legend:
receptor on MCF-7 cells [1] = test: cell-based or functional assay
receptor on MCF-7 cells [2] = test: cell-based or functional assay; remark: listed apart in the source

EC50 (receptor on MCF-7 cells [1]): 0.924 nM
EC50 (receptor on MCF-7 cells [2]): 1.65 nM
Substance: recombinant NRG polypeptide with an amino acid sequence of SEQ ID NO: 1 (from UniProt Q02297-11 122-190) (ligand)
